In the supplement of paper PMC5998384:

How the values were obtained:
HeLa Kyoto [1] = assay: solubility in G1/S (NP-40 vs SDS abundance) (log2 ratio); higher = more soluble; conditions: cell cycle stage: G1/S
HeLa Kyoto [2] = assay: solubility change mitosis vs G1/S (difference of NP-40 vs SDS log2 ratios) (log2 ratio difference); higher = more soluble in mitosis
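Wherever solubility change mitosis vs G1/S (difference of NP-40 vs SDS log2 ratios) is given: synchronized HeLa Kyoto cells (double thymidine block for G1/S, nocodazole release for mitosis), protein amounts in NP-40 versus SDS lysates quantified by mass spectrometry, three biological replicates.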
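Wherever solubility in G1/S (NP-40 vs SDS abundance) is given: HeLa Kyoto cells arrested at G1/S by double thymidine block, proteins quantified by TMT10plex mass spectrometry in mild NP-40 versus SDS extracts, three biological replicates.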

MMADEEEEVKPILQKLQELVDQLYSFRDCYFETHSVEDAGRKQQDVQKEMEKTLQQMEEVVGSVQGKAQVLMLTGKALNVTPDYSPKAEELLSKAVKLEPELVEAWNQLGEVYWKKGDVAAAHTCFSGALTHCRNKVSLQNLSMVLRQLRTDTEDEHSHHVMDSVRQAKLAVQMDVHDGRSWYILGNSYLSLYFSTGQNPKISQQALSAYAQAEKVDRKASSNPDLHLNRATLHKYEESYGEALEGFSRAAALDPAWPEPRQREQQLLEFLDRLTSLLESKGKVKTKKLQSMLGSLRPAHLGPCSDGHYQSASGQKVTLELKPLSTLQPGVNSGAVILGKVVFSLTTEEKVPFTFGLVDSDGPCYAVMVYNIVQSWGVLIGDSVAIPEPNLRLHRIQHKGKDYSFSSVRVETPLLLVVNGKPQGSSSQAVATVASRPQCE [TTC5]
solubility in G1/S (log2) (HeLa Kyoto [1]): 0.132
solubility change mitosis (log2) (HeLa Kyoto [2]): 0.145

MMAQSNMFTVADVLSQDELRKKLYQTFKDRGILDTLKTQLRNQLIHELMHPVLSGELQPRSISVEGSSLLIGASNSLVADHLQRCGYEYSLSVFFPESGLAKEKVFTMQDLLQLIKINPTSSLYKSLVSGSDKENQKGFLMHFLKELAEYHQAKESCNMETQTSSTFNRDSLAEKLQLIDDQFADAYPQRIKFESLEIKLNEYKREIEEQLRAEMCQKLKFFKDTEIAKIKMEAKKKYEKELTMFQNDFEKACQAKSEALVLREKSTLERIHKHQEIETKEIYAQRQLLLKDMDLLRGREAELKQRVEAFELNQKLQEEKHKSITEALRRQEQNIKSFEETYDRKLKNELLKYQLELKDDYIIRTNRLIEDERKNKEKAVHLQEELIAINSKKEELNQSVNRVKELELELESVKAQSLAITKQNHMLNEKVKEMSDYSLLKEEKLELLAQNKLLKQQLEESRNENLRLLNRLAQPAPELAVFQKELRKAEKAIVVEHEEFESCRQALHKQLQDEIEHSAQLKAQILGYKASVKSLTTQVADLKLQLKQTQTALENEVYCNPKQSVIDRSVNGLINGNVVPCNGEISGDFLNNPFKQENVLARMVASRITNYPTAWVEGSSPDSDLEFVANTKARVKELQQEAERLEKAFRSYHRRVIKNSAKSPLAAKSPPSLHLLEAFKNITSSSPERHIFGEDRVVSEQPQVGTLEERNDVVEALTGSAASRLRGGTSSRRLSSTPLPKAKRSLESEMYLEGLGRSHIASPSPCPDRMPLPSPTESRHSLSIPPVSSPPEQKVGLYRRQTELQDKSEFSDVDKLAFKDNEEFESSFESAGNMPRQLEMGGLSPAGDMSHVDAAAAAVPLSYQHPSVDQKQIEEQKEEEKIREQQVKERRQREERRQSNLQEVLERERRELEKLYQERKMIEESLKIKIKKELEMENELEMSNQEIKDKSAHSENPLEKYMKIIQQEQDQESADKSSKKMVQEGSLVDTLQSSDKVESLTGFSHEELDDSW [OFD1]
solubility in G1/S (log2) (HeLa Kyoto [1]): -0.146
solubility change mitosis (log2) (HeLa Kyoto [2]): 0.252

MMDPCSVGVQLRTTNECHKTYYTRHTGFKTLQELSSNDMLLLQLRTGMTLSGNNTICFHHVKIYIDRFEDLQKSCCDPFNIHKKLAKKNLHVIDLDDATFLSAKFGRQLVPGWKLCPKCTQIINGSVDVDTEDRQKRKPESDGRTAKALRSLQFTNPGRQTEFAPETGKREKRRLTKNATAGSDRQVIPAKSKVYDSQGLLIFSGMDLCDCLDEDCLGCFYACPACGSTKCGAECRCDRKWLYEQIEIEGGEIIHNKHAG [ARL14EP]
solubility in G1/S (log2) (HeLa Kyoto [1]): -0.0781
solubility change mitosis (log2) (HeLa Kyoto [2]): -0.0185

MMDSPFLELWQSKAVSIREQLGLGDRPNDSYCYNSAKNSTVLQGVTFGGIPTVLLIDVSCFLFLILVFSIIRRRFWDYGRIALVSEADSESRFQRLSSTSSSGQQDFENELGCCPWLTAIFRLHDDQILEWCGEDAIHYLSFQRHIIFLLVVVSFLSLCVILPVNLSGDLLDKDPYSFGRTTIANLQTDNDLLWLHTIFAVIYLFLTVGFMRHHTQSIKYKEENLVRRTLFITGLPRDARKETVESHFRDAYPTCEVVDVQLCYNVAKLIYLCKEKKKTEKSLTYYTNLQVKTGQRTLINPKPCGQFCCCEVLGCEWEDAISYYTRMKDRLLERITEEERHVQDQPLGMAFVTFQEKSMATYILKDFNACKCQSLQCKGEPQPSSHSRELYTSKWTVTFAADPEDICWKNLSIQGLRWWLQWLGINFTLFLGLFFLTTPSIILSTMDKFNVTKPIHALNNPIISQFFPTLLLWSFSALLPSIVYYSTLLESHWTKSGENQIMMTKVYIFLIFMVLILPSLGLTSLDFFFRWLFDKTSSEASIRLECVFLPDQGAFFVNYVIASAFIGNGMELLRLPGLILYTFRMIMAKTAADRRNVKQNQAFQYEFGAMYAWMLCVFTVIVAYSITCPIIAPFGLIYILLKHMVDRHNLYFVYLPAKLEKGIHFAAVNQALAAPILCLFWLYFFSFLRLGMKAPATLFTFLVLLLTILVCLAHTCFGCFKHLSPLNYKTEEPASDKGSEAEAHMPPPFTPYVPRILNGLASERTALSPQQQQQQTYGAIHNISGTIPGQCLAQSATGSVAAAPQEA [TMEM63A]
solubility in G1/S (log2) (HeLa Kyoto [1]): -0.142
solubility change mitosis (log2) (HeLa Kyoto [2]): 0.0055

MMFRSDRMWSCHWKWKPSPLLFLFALYIMCVPHSVWGCANCRVVLSNPSGTFTSPCYPNDYPNSQACMWTLRAPTGYIIQITFNDFDIEEAPNCIYDSLSLDNGESQTKFCGATAKGLSFNSSANEMHVSFSSDFSIQKKGFNASYIRVAVSLRNQKVILPQTSDAYQVSVAKSISIPELSAFTLCFEATKVGHEDSDWTAFSYSNASFTQLLSFGKAKSGYFLSISDSKCLLNNALPVKEKEDIFAESFEQLCLVWNNSLGSIGVNFKRNYETVPCDSTISKVIPGNGKLLLGSNQNEIVSLKGDIYNFRLWNFTMNAKILSNLSCNVKGNVVDWQNDFWNIPNLALKAESNLSCGSYLIPLPAAELASCADLGTLCQATVNSPSTTPPTVTTNMPVTNRIDKQRNDGIIYRISVVIQNILRHPEVKVQSKVAEWLNSTFQNWNYTVYVVNISFHLSAGEDKIKVKRSLEDEPRLVLWALLVYNATNNTNLEGKIIQQKLLKNNESLDEGLRLHTVNVRQLGHCLAMEEPKGYYWPSIQPSEYVLPCPDKPGFSASRICFYNATNPLVTYWGPVDISNCLKEANEVANQILNLTADGQNLTSANITNIVEQVKRIVNKEENIDITLGSTLMNIFSNILSSSDSDLLESSSEALKTIDELAFKIDLNSTSHVNITTRNLALSVSSLLPGTNAISNFSIGLPSNNESYFQMDFESGQVDPLASVILPPNLLENLSPEDSVLVRRAQFTFFNKTGLFQDVGPQRKTLVSYVMACSIGNITIQNLKDPVQIKIKHTRTQEVHHPICAFWDLNKNKSFGGWNTSGCVAHRDSDASETVCLCNHFTHFGVLMDLPRSASQLDARNTKVLTFISYIGCGISAIFSAATLLTYVAFEKLRRDYPSKILMNLSTALLFLNLLFLLDGWITSFNVDGLCIAVAVLLHFFLLATFTWMGLEAIHMYIALVKVFNTYIRRYILKFCIIGWGLPALVVSVVLASRNNNEVYGKESYGKEKGDEFCWIQDPVIFYVTCAGYFGVMFFLNIAMFIVVMVQICGRNGKRSNRTLREEVLRNLRSVVSLTFLLGMTWGFAFFAWGPLNIPFMYLFSIFNSLQGLFIFIFHCAMKENVQKQWRQHLCCGRFRLADNSDWSKTATNIIKKSSDNLGKSLSSSSIGSNSTYLTSKSKSSSTTYFKRNSHTDNVSYEHSFNKSGSLRQCFHGQVLVKTGPC [GPR126]
solubility in G1/S (log2) (HeLa Kyoto [1]): -0.117
solubility change mitosis (log2) (HeLa Kyoto [2]): -0.0428

MMMVRRGLLAWISRVVVLLVLLCCAISVLYMLACTPKGDEEQLALPRANSPTGKEGYQAVLQEWEEQHRNYVSSLKRQIAQLKEELQERSEQLRNGQYQASDAAGLGLDRSPPEKTQADLLAFLHSQVDKAEVNAGVKLATEYAAVPFDSFTLQKVYQLETGLTRHPEEKPVRKDKRDELVEAIESALETLNSPAENSPNHRPYTASDFIEGIYRTERDKGTLYELTFKGDHKHEFKRLILFRPFGPIMKVKNEKLNMANTLINVIVPLAKRVDKFRQFMQNFREMCIEQDGRVHLTVVYFGKEEINEVKGILENTSKAANFRNFTFIQLNGEFSRGKGLDVGARFWKGSNVLLFFCDVDIYFTSEFLNTCRLNTQPGKKVFYPVLFSQYNPGIIYGHHDAVPPLEQQLVIKKETGFWRDFGFGMTCQYRSDFINIGGFDLDIKGWGGEDVHLYRKYLHSNLIVVRTPVRGLFHLWHEKRCMDELTPEQYKMCMQSKAMNEASHGQLGMLVFRHEIEAHLRKQKQKTSSKKT [CSGALNACT1]
solubility in G1/S (log2) (HeLa Kyoto [1]): 0.0522
solubility change mitosis (log2) (HeLa Kyoto [2]): 0.00125

MMQGNTCHRMSFHPGRGCPRGRGGHGARPSAPSFRPQNLRLLHPQQPPVQYQYEPPSAPSTTFSNSPAPNFLPPRPDFVPFPPPMPPSAQGPLPPCPIRPPFPNHQMRHPFPVPPCFPPMPPPMPCPNNPPVPGAPPGQGTFPFMMPPPSMPHPPPPPVMPQQVNYQYPPGYSHHNFPPPSFNSFQNNPSSFLPSANNSSSPHFRHLPPYPLPKAPSERRSPERLKHYDDHRHRDHSHGRGERHRSLDRRERGRSPDRRRQDSRYRSDYDRGRTPSRHRSYERSRERERERHRHRDNRRSPSLERSYKKEYKRSGRSYGLSVVPEPAGCTPELPGEIIKNTDSWAPPLEIVNHRSPSREKKRARWEEEKDRWSDNQSSGKDKNYTSIKEKEPEETMPDKNEEEEEELLKPVWIRCTHSENYYSSDPMDQVGDSTVVGTSRLRDLYDKFEEELGSRQEKAKAARPPWEPPKTKLDEDLESSSESECESDEDSTCSSSSDSEVFDVIAEIKRKKAHPDRLHDELWYNDPGQMNDGPLCKCSAKARRTGIRHSIYPGEEAIKPCRPMTNNAGRLFHYRITVSPPTNFLTDRPTVIEYDDHEYIFEGFSMFAHAPLTNIPLCKVIRFNIDYTIHFIEEMMPENFCVKGLELFSLFLFRDILELYDWNLKGPLFEDSPPCCPRFHFMPRFVRFLPDGGKEVLSMHQILLYLLRCSKALVPEEEIANMLQWEELEWQKYAEECKGMIVTNPGTKPSSVRIDQLDREQFNPDVITFPIIVHFGIRPAQLSYAGDPQYQKLWKSYVKLRHLLANSPKVKQTDKQKLAQREEALQKIRQKNTMRREVTVELSSQGFWKTGIRSDVCQHAMMLPVLTHHIRYHQCLMHLDKLIGYTFQDRCLLQLAMTHPSHHLNFGMNPDHARNSLSNCGIRQPKYGDRKVHHMHMRKKGINTLINIMSRLGQDDPTPSRINHNERLEFLGDAVVEFLTSVHLYYLFPSLEEGGLATYRTAIVQNQHLAMLAKKLELDRFMLYAHGPDLCRESDLRHAMANCFEALIGAVYLEGSLEEAKQLFGRLLFNDPDLREVWLNYPLHPLQLQEPNTDRQLIETSPVLQKLTEFEEAIGVIFTHVRLLARAFTLRTVGFNHLTLGHNQRMEFLGDSIMQLVATEYLFIHFPDHHEGHLTLLRSSLVNNRTQAKVAEELGMQEYAITNDKTKRPVALRTKTLADLLESFIAALYIDKDLEYVHTFMNVCFFPRLKEFILNQDWNDPKSQLQQCCLTLRTEGKEPDIPLYKTLQTVGPSHARTYTVAVYFKGERIGCGKGPSIQQAEMGAAMDALEKYNFPQMAHQKRFIERKYRQELKEMRWEREHQEREPDETEDIKK [DROSHA]
solubility in G1/S (log2) (HeLa Kyoto [1]): -0.744
solubility change mitosis (log2) (HeLa Kyoto [2]): 0.203

MNALLEQKEQQERLREAAALGDIREVQKLVESGVDVNSQNEVNGWTCLHWACKRNHGQVVSYLLKSGADKEILTTKGEMPVQLTSRREIRKIMGVEEEDDDDDDDDNLPQLKKESELPFVPNYLANPAFPFIYTPTAEDSAQMQNGGPSTPPASPPADGSPPLLPPGEPPLLGTFPRDHTSLALVQNGDVSAPSAILRTPESTKPGPVCQPPVSQSRSLFSSVPSKPPMSLEPQNGTYAGPAPAFQPFFFTGAFPFNMQELVLKVRIQNPSLRENDFIEIELDRQELTYQELLRVCCCELGVNPDQVEKIRKLPNTLLRKDKDVARLQDFQELELVLMISENNFLFRNAASTLTERPCYNRRASKLTY [ANKRD40]
solubility in G1/S (log2) (HeLa Kyoto [1]): -0.0058
solubility change mitosis (log2) (HeLa Kyoto [2]): -0.00743
